Test results as given in patent publication US20170240635A1 (AGENCY FOR SCIENCE TECHNOLOGY AND RESEARCH, published 2017).
Changes are numbered by the printed parent chain. Like-named read-outs stand apart in the source and are kept apart here. Blank lines part the entries; values can stand above or below the binder they belong to.

Legend:
hCTLA4-Fc [1] = biological target: T1, hCTLA4-Fc (human, UniProt P16410); test: ELISA; antigen coated 350 ng/well, Fab-containing supernatant, goat anti-human Fab-HRP, absorbance 450-670 nm
T1 construct: also called human CTLA-4; human CTLA4

[2] = biological target: T2, human TIM-3 coupled to human Fc (human, UniProt Q8TDQ0 22-200, limits assumed); test: ELISA; antigen coated 350 ng/well, goat anti-human Fab-HRP, absorbance 450-670 nm
T2 construct: not shown: human Fc
Method: (§1) Anti-PD-1 antibodies were tested in an ELISA assay for their ability to bind to other members of the CD28 family.
(§2) Briefly, ELISA plates were coated with 350 ng/well of one of the following antigens coupled to human Fc in carbonate buffer: human PD-1, human PD-L1, human TIM-3, human LAG-3, human ICOS, human CTLA4, human BTLA, human CD28, mouse TIM-3, or rhesus PD-1. The plate was then blocked with a solution of casein. After extensive washes in PBS Tween-20, antibodies were added into the ELISA wells in the presence of 7% milk in PBS. After 90 minutes at room temperature under agitation and extensive washes, a goat anti-human Fab antibody coupled to HRP was added. One hour later, plates were washed and TMB substrate added. The reaction was stopped with 1M HCl and optical density measured at 450 nm with a reference at 670 nm.

[3] = biological target: T3, human PD-L1 coupled to human Fc (human, UniProt Q9NZQ7 19-239, limits assumed); test: as above
T3 construct: ELISA coating antigen; not shown: human Fc
Method: as §1, §2

[4] = biological target: T4, human CD28 coupled to human Fc (human, UniProt P10747 19-152, limits assumed); test: as above
T4 construct: ELISA coating antigen; not shown: human Fc
Method: as §1, §2

mTim3-Fc = biological target: T5, mTim3-Fc (mouse, UniProt Q8VIM0); test: as above
T5 construct: also called mouse TIM-3
Method: as §1, §2

hICOS-Fc = biological target: T6, hICOS-Fc (human, UniProt Q9Y6W8); test: as above
T6 construct: also called human ICOS
T6 sequence (antigen, looked up): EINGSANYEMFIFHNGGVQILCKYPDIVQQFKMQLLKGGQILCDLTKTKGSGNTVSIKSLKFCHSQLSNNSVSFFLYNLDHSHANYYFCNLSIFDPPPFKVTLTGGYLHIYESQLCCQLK
Method: as §1, §2

[5] = biological target: T7, human LAG-3 coupled to human Fc (human, UniProt P18627 23-450, limits assumed); test: as above
T7 construct: ELISA coating antigen; not shown: human Fc
T7 sequence (looked up): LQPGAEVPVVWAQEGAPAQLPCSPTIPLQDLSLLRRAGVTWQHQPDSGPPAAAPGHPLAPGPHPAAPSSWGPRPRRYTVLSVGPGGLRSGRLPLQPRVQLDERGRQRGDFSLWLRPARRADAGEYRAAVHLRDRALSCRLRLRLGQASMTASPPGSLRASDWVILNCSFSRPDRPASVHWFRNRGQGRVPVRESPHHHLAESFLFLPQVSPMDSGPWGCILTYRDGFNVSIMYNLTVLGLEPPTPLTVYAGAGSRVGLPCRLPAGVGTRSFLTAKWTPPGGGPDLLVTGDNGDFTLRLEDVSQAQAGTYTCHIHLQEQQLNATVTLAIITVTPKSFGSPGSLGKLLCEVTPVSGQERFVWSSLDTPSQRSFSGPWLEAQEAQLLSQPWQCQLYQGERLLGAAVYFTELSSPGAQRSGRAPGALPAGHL
Method: as §1, §2

[6] = biological target: T8, human BTLA coupled to human Fc (human, UniProt Q7Z6A9 31-150, limits assumed); test: as above
T8 construct: ELISA coating antigen; not shown: human Fc
Method: as §1, §2

[7] = biological target: T9, human PD-1 coupled to human Fc (human, UniProt Q15116 25-167, limits assumed); test: SPR (ProteOn XPR36); human PD-1-Fc immobilised, crude Fab extract flown over
T9 construct: also called human-PD-1 coupled to Fc; not shown: human Fc
Method: Briefly, human or mouse PD-1 coupled to human Fc was immobilised on a sensor chip compatible with the Proteon XPR36 bioanalyser (Biorad). Crude Fab extracts (or the control antibodies) were then flown onto the chip and the association/dissociation of each candidate Fab was then recorded and analysed, the affinity (KD) was calculated.

hCTLA4-Fc [8] = biological target: T1, hCTLA4-Fc; test: ELISA; antigen coated 350 ng/well, goat anti-human Fab-HRP, absorbance 450-670 nm
Method: as §1, §2

[9] = biological target: T10, PD-1 on exhausted human T cells (human, UniProt Q15116 25-288); test: flow cytometry (MFI); IgG4 on human T cells activated 7 days with allogeneic DCs, fluorescent secondary antibody
T10 construct: whole, on cells; T cells exhausted by 7 days of culture with allogeneic monocyte-derived dendritic cells
Method: (§3) 50,000 T cells isolated from a healthy donor were incubated in the presence of 5,000 monocyte-derived DCs from another donor for 7 days at 37° C. Antibodies, expressed as IgG4, were incubated with such activated T cells for 30 minutes in PBS. After a wash in PBS, a fluorescent labelled secondary antibody was added for 30 minutes and then washed in PBS. Cells were resuspended in FACS buffer and binding of the antibody to the cells was monitored by flow cytometry (FIGS. 6 and 7).

[10] = biological target: T10, PD-1 on exhausted human T cells; test: as above; remark: listed apart in the source
Method: as §3

T3 sequence (Q9NZQ7 19-239 limits assumed): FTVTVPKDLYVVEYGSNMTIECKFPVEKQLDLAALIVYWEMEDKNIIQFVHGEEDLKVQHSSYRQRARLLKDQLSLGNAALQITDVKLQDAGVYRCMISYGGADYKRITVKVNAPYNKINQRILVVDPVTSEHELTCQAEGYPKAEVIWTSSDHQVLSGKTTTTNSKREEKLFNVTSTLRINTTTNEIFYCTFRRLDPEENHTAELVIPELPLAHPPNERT
T5 sequence (Q8VIM0 20-191 limits assumed): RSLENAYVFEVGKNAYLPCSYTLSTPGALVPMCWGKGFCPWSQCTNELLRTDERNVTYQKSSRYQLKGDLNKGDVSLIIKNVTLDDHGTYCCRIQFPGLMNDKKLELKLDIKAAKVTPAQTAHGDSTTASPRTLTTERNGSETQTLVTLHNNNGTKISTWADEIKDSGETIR
T10 sequence (Q15116 25-288): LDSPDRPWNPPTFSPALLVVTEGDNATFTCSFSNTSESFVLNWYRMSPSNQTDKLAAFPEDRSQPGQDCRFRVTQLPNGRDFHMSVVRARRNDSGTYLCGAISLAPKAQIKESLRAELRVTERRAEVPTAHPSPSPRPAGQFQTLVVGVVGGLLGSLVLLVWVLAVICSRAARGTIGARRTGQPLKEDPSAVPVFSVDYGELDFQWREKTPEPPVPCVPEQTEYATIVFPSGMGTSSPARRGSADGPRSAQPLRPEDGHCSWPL
T1 sequence (P16410 37-162 limits assumed): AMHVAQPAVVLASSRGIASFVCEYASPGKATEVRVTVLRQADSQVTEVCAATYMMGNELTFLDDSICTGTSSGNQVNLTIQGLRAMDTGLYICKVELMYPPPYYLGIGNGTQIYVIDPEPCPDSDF
T9 sequence (Q15116 25-167 limits assumed): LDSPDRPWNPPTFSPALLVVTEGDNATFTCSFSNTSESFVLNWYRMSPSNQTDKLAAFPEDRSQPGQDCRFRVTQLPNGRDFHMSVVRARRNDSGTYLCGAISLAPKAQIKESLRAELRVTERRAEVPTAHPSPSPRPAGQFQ
T8 sequence (Q7Z6A9 31-150 limits assumed): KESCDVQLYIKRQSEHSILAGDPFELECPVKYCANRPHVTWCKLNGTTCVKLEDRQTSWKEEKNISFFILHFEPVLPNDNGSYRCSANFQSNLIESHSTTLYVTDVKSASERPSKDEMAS

binding result (hCTLA4-Fc [1]): no binding (tested: not given) | binding result [2]: no binding (tested: not given) | binding result [3]: no binding (tested: not given) | binding result [4]: no binding (tested: not given) | binding result (mTim3-Fc): no binding (tested: not given) | binding result (hICOS-Fc): no binding (tested: not given) | binding result [5]: no binding (tested: not given) | binding result [6]: no binding (tested: not given) | Kd [7]: 0.26 nM
B1: anti-PD-1 antibody clone B6 (Fab) (Fab, V domains shown)
VH: QVQLVESGGGVVQPGRSLRLSCAASGFTFSSYGMHWVRQAPGKGLEWVAVISYDGSNKYYADSVKGRFTISRDNSKNTLYLQMNSLRAEDTAVYYCASDYGAGPYYYGMDVWGQGTTVTVSS
VL: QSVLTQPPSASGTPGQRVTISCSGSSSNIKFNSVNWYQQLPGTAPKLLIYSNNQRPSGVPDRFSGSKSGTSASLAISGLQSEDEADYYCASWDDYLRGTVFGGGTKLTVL
notes: Crude Fab extract in SPR

binding result [2]: no binding (tested: not given) | binding result [3]: no binding (tested: not given) | binding result (hCTLA4-Fc [8]): no binding (tested: not given) | binding result [4]: no binding (tested: not given) | binding result (mTim3-Fc): no binding (tested: not given) | binding result (hICOS-Fc): no binding (tested: not given) | binding result [5]: no binding (tested: not given) | binding result [6]: no binding (tested: not given) | Kd [7]: 0.1 nM
B2: anti-PD-1 antibody clone G1 (Fab) (Fab, V domains shown)
VH: B1 VH with Y100L
VL: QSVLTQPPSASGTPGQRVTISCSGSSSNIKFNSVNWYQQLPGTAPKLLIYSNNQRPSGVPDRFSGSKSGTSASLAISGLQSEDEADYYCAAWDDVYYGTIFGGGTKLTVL
notes: Crude Fab extract in SPR

binding result (hCTLA4-Fc [1]): no binding (tested: not given) | binding result [2]: no binding (tested: not given) | binding result [3]: no binding (tested: not given) | binding result [4]: no binding (tested: not given) | binding result (mTim3-Fc): no binding (tested: not given) | binding result (hICOS-Fc): no binding (tested: not given) | binding result [5]: no binding (tested: not given) | binding result [6]: no binding (tested: not given) | Kd [7]: 0.22 nM
B3: anti-PD-1 antibody clone D4 (Fab) (Fab, V domains shown)
VH: B1 VH with Y100L
VL: QSVLTQPPSASGTPGQRVTISCSGSSSNIKFNSVNWYQQLPGTAPKLLIYSNNQRPSGVPDRFSGSKSGTSASLAISGLQSEDEADYYCASWDDYVRGTMFGGGTKLTVL
notes: Crude Fab extract in SPR

binding result (hCTLA4-Fc [1]): no binding (tested: not given) | binding result [2]: no binding (tested: not given) | binding result [3]: no binding (tested: not given) | binding result [4]: no binding (tested: not given) | binding result (mTim3-Fc): no binding (tested: not given) | binding result (hICOS-Fc): no binding (tested: not given) | binding result [5]: no binding (tested: not given) | binding result [6]: no binding (tested: not given) | Kd [7]: 0.21 nM
B4: anti-PD-1 antibody clone E1 (Fab) (Fab, V domains shown)
VH: B1 VH with Y100L
VL: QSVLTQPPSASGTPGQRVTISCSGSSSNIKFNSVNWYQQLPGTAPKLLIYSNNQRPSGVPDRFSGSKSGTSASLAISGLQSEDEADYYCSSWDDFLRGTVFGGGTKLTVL
notes: Crude Fab extract in SPR

binding result (hCTLA4-Fc [1]): no binding (tested: not given) | binding result [2]: no binding (tested: not given) | binding result [3]: no binding (tested: not given) | binding result [4]: no binding (tested: not given) | binding result (mTim3-Fc): no binding (tested: not given) | binding result (hICOS-Fc): no binding (tested: not given) | binding result [5]: no binding (tested: not given) | binding result [6]: no binding (tested: not given) | Kd [7]: 0.4 nM
B5: anti-PD-1 antibody clone C4 (Fab) (Fab, V domains shown)
VH: B1 VH with Y100L, M109L
VL: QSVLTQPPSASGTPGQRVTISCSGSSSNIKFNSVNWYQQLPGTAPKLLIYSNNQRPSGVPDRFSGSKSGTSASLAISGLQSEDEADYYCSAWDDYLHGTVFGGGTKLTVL
notes: Crude Fab extract in SPR

EC50 [9]: 0.253 nM | EC50 [10]: 0.262 nM
B6: A10-IgG4 (antibody, V domains shown)
VH: B1 VH with E6Q, Y100L, M109K
VL: B3 VL with Q1L, S2P, Y88F, V96Y, R97Y, M100I
notes: also called anti-PD-1 antibody clone A10 (human IgG4)

binding result [2]: no binding (tested: not given) | binding result [3]: no binding (tested: not given) | binding result (hCTLA4-Fc [8]): no binding (tested: not given) | binding result [4]: no binding (tested: not given) | binding result (mTim3-Fc): no binding (tested: not given) | binding result (hICOS-Fc): no binding (tested: not given) | binding result [5]: no binding (tested: not given) | binding result [6]: no binding (tested: not given) | Kd [7]: 0.27 nM
B7: anti-PD-1 antibody clone H4 (Fab) (Fab, V domains shown)
VH: B1 VH with Y100L, A102S, P104Y, Y106L
VL: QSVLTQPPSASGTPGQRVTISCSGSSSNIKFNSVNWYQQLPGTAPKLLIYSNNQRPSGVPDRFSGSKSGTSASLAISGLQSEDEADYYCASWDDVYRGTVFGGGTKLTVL
notes: Crude Fab extract in SPR

EC50 [10]: 0.855 nM
B8: A3-IgG4 (antibody, V domains shown)
VH: B1 VH with E6Q, Y100L, M109K, V111H
VL: B3 VL with Q1L, S2P, Y88F, Y95V, V96L, R97Y, T99S, M100V
notes: also called anti-PD-1 antibody clone A3 (human IgG4)

binding result [2]: no binding (tested: not given) | binding result [3]: no binding (tested: not given) | binding result (hCTLA4-Fc [8]): no binding (tested: not given) | binding result [4]: no binding (tested: not given) | binding result (mTim3-Fc): no binding (tested: not given) | binding result (hICOS-Fc): no binding (tested: not given) | binding result [5]: no binding (tested: not given) | binding result [6]: no binding (tested: not given) | Kd [7]: 0.11 nM
B9: anti-PD-1 antibody clone F2 (Fab) (Fab, V domains shown)
VH: B1 VH with Y100L
VL: B3 VL with A90S, Y95D, V96A, M100I
notes: Crude Fab extract in SPR

binding result (hCTLA4-Fc [1]): no binding (tested: not given) | binding result [2]: no binding (tested: not given) | binding result [3]: no binding (tested: not given) | binding result [4]: no binding (tested: not given) | binding result (mTim3-Fc): no binding (tested: not given) | binding result (hICOS-Fc): no binding (tested: not given) | binding result [5]: no binding (tested: not given) | binding result [6]: no binding (tested: not given) | Kd [7]: 0.27 nM
B10: anti-PD-1 antibody clone G10 (Fab) (Fab, V domains shown)
VH: B1 VH
VL: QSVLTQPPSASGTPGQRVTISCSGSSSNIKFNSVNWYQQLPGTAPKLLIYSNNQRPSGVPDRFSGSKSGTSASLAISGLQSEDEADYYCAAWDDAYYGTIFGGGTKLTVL
notes: Crude Fab extract in SPR
